Reference: paper PMC5473807, “Distribution and kinetics of the Kv1.3-blocking peptide HsTX1[R14A] in experimental rats” (Scientific Reports, 2017)
Where two headings read alike, the source gives them in different places.

Experiment: In vivo biodistribution by organ and tissue extraction
Design: species or system male Wistar rats
Conditions: for SUV at 5 min / tissue uptake dose at 5 min / SUV at 1 h / tissue uptake dose at 1 h / SUV at 4 h / tissue uptake dose at 4 h / SUV at 24 h / tissue uptake dose at 24 h / SUV at 48 h / tissue uptake dose at 48 h: male, Wistar, total radioactivity, rat, mean ± SD; for SUV at 5 min / tissue uptake dose at 5 min: 5 min p.i.; for SUV at 1 h / tissue uptake dose at 1 h: 60 min p.i.; for SUV at 4 h / tissue uptake dose at 4 h: 240 min p.i.; for SUV at 24 h / tissue uptake dose at 24 h: 1440 min p.i.; for SUV at 48 h / tissue uptake dose at 48 h: 2880 min p.i.
Description: The present study includes data obtained from a total of 50 animals. Four animals (body weight 227 ± 10 g) for each time point were injected intravenously into a tail vein or subcutaneously with approximately 0.3 MBq ([…]) [^64Cu]Cu-NOTA-HsTX1[R14A] conjugate in 0.5 mL electrolyte solution E-153 (Serumwerk Bernburg, Germany). Animals were euthanised at 5, 60, 240, 1440 and 2880 min post-injection. Blood and the major organs were collected, weighed, and counted in a cross-calibrated γ-counter (Isomed 1000, Isomed GmbH, Dresden) and Wallac WIZARD Automatic Gamma Counter (PerkinElmer, Germany). The radioactivity of the tissue samples was decay-corrected and calibrated by comparing the counts in tissue with the counts in aliquots of the injected radiotracer that had been measured in the γ-counter at the same time. The activity in the selected organs was expressed as percent-injected dose per organ (% ID) and the activity concentration in tissues and organs as standardised uptake value (SUV). Values are quoted as mean ± standard error of mean (SEM) for each group of four animals.

[1] = Harderian gland, iv, 0.3 MBq, i.v., n=4, read-out: Harderian gl. SUV
[2] = Harderian gland, iv, 0.3 MBq, i.v., n=4, read-out: Harderian gl. activity amount
[3] = Harderian gland, iv, 0.3 MBq, i.v., n=8, read-out: Harderian gl. SUV
[4] = Harderian gland, iv, 0.3 MBq, i.v., n=8, read-out: Harderian gl. activity amount
[5] = Harderian gland, sc, 0.3 MBq, s.c., n=4, read-out: Harderian gl. SUV
[6] = Harderian gland, sc, 0.3 MBq, s.c., n=4, read-out: Harderian gl. activity amount
[7] = adrenals, iv, 0.3 MBq, i.v., n=4, read-out: Adrenals SUV
[8] = adrenals, iv, 0.3 MBq, i.v., n=4, read-out: Adrenals activity amount
[9] = adrenals, iv, 0.3 MBq, i.v., n=8, read-out: Adrenals SUV
[10] = adrenals, iv, 0.3 MBq, i.v., n=8, read-out: Adrenals activity amount
[11] = adrenals, sc, 0.3 MBq, s.c., n=4, read-out: Adrenals SUV
[12] = adrenals, sc, 0.3 MBq, s.c., n=4, read-out: Adrenals activity amount
[13] = blood, sc, s.c., n=4, read-out: Blood SUV
[14] = brain, iv, 0.3 MBq, i.v., n=4, read-out: Brain SUV
[15] = brain, iv, 0.3 MBq, i.v., n=4, read-out: Brain activity amount
[16] = brain, iv, 0.3 MBq, i.v., n=8, read-out: Brain SUV
[17] = brain, iv, 0.3 MBq, i.v., n=8, read-out: Brain activity amount
[18] = brain, sc, 0.3 MBq, s.c., n=4, read-out: Brain SUV
[19] = brain, sc, 0.3 MBq, s.c., n=4, read-out: Brain activity amount
[20] = carcass, iv, 0.3 MBq, i.v., n=4, read-out: Carcass activity amount
[21] = carcass, iv, 0.3 MBq, i.v., n=8, read-out: Carcass activity amount
[22] = carcass, sc, 0.3 MBq, s.c., n=4, read-out: Carcass activity amount
[23] = femur, iv, 0.3 MBq, i.v., n=4, read-out: Femur SUV
[24] = femur, iv, 0.3 MBq, i.v., n=4, read-out: Femur activity amount
[25] = femur, iv, 0.3 MBq, i.v., n=8, read-out: Femur SUV
[26] = femur, iv, 0.3 MBq, i.v., n=8, read-out: Femur activity amount

With `CSCC[C@@H]1NC(=O)[C@@H]2CSSC[C@H](NC(=O)[C@H](CO)NC(=O)[C@H](C)NC(=O)COCCOCCNC(=O)CN3CCN(CC(=O)O)CCN(CC(=O)O)CC3)C(=O)N[C@@H](CCCNC(=N)N)C(=O)N[C@@H]([C@@H](C)O)C(=O)N3CCC[C@H]3C(=O)N[C@@H](CCCCN)C(=O)N[C@@H](CC(=O)O)C(=O)N[C@H]3CSSC[C@H](NC(=O)[C@H](CCCCN)NC(=O)[C@H](CCCNC(=N)N)NC(=O)[C@H](CC(N)=O)NC1=O)C(=O)N[C@@H](CCCCN)C(=O)N[C@H]1CSSC[C@H](NC(=O)[C@@H]4CCCN4C(=O)[C@H](CC(=O)O)NC(=O)[C@H](C)NC3=O)C(=O)N[C@@H](C)C(=O)N[C@@H](CCCCN)C(=O)N[C@@H](CCC(=O)O)C(=O)N[C@@H]([C@@H](C)O)C(=O)NCC(=O)N[C@@H](CSSC[C@@H](C(N)=O)NC(=O)[C@H](CCCNC(=N)N)NC(=O)[C@H](CC(N)=O)NC1=O)C(=O)N1CCC[C@H]1C(=O)N[C@@H](Cc1ccc(O)cc1)C(=O)NCC(=O)N[C@@H](CCCCN)C(=O)N2` [[^64Cu]Cu-NOTA-HsTX1[R14A], metal not drawn] the “biological half-life of the total activity in the rat body” value (i.v.) was 45.4 h, the SUV at 5 min [1] was 0.82 ± 0.12 SUV and the tissue uptake dose at 5 min [2] was 0.1 ± 0.02 %ID. The SUV at 1 h [3] was 0.3 ± 0.05 SUV, the tissue uptake dose at 1 h [4] was 0.04 %ID and the SUV at 4 h [1] was 0.23 ± 0.01 SUV. For the same molecule, the tissue uptake dose at 4 h [2] was 0.03 %ID, the SUV at 24 h [3] was 0.56 ± 0.1 SUV and the tissue uptake dose at 24 h [4] was 0.08 ± 0.01 %ID. The SUV at 48 h [1] was 0.48 ± 0.05 SUV, the tissue uptake dose at 48 h [2] was 0.07 %ID and the SUV at 1 h [5] was 0.32 ± 0.01 SUV. It also gave a tissue uptake dose at 1 h [6] of 0.04 %ID, an SUV at 4 h [5] of 0.21 ± 0.01 SUV and a tissue uptake dose at 4 h [6] of 0.03 %ID. The SUV at 24 h [5] was 0.46 ± 0.01 SUV, the tissue uptake dose at 24 h [6] was 0.08 ± 0.01 %ID and the SUV at 48 h [5] was 0.44 ± 0.02 SUV. It also gave a tissue uptake dose at 48 h [6] of 0.06 ± 0.01 %ID, an SUV at 5 min [7] of 1.26 ± 0.48 SUV and a tissue uptake dose at 5 min [8] of 0.03 %ID. For the same molecule, the SUV at 1 h [9] was 0.65 ± 0.37 SUV, the tissue uptake dose at 1 h [10] was 0.01 %ID and the SUV at 4 h [7] was 0.39 ± 0.05 SUV. It also gave a tissue uptake dose at 4 h [8] of 0.01 %ID, an SUV at 24 h [9] of 0.86 ± 0.11 SUV and a tissue uptake dose at 24 h [10] of 0.02 %ID. It also gave an SUV at 48 h [7] of 0.71 ± 0.04 SUV, a tissue uptake dose at 48 h [8] of 0.02 %ID and an SUV at 1 h [11] of 0.4 ± 0.08 SUV. It also gave a tissue uptake dose at 1 h [12] of 0.01 %ID, an SUV at 4 h [11] of 0.4 ± 0.02 SUV and a tissue uptake dose at 4 h [12] of 0.01 %ID. For the same molecule, the SUV at 24 h [11] was 0.73 ± 0.1 SUV, the tissue uptake dose at 24 h [12] was 0.02 %ID and the SUV at 48 h [11] was 0.55 ± 0.33 SUV. The tissue uptake dose at 48 h [12] was 0.02 ± 0.01 %ID, the SUV at 5 min (blood, iv, 0.3 MBq, i.v., n=4, read-out: Blood SUV) was 1.09 ± 0.62 SUV and the SUV at 1 h (blood, iv, 0.3 MBq, i.v., n=8, read-out: Blood SUV) was 0.7 ± 0.23 SUV. For the same molecule, the SUV at 4 h [13] was 0.47 ± 0.21 SUV, the SUV at 24 h [13] was 0.44 ± 0.04 SUV and the SUV at 48 h [13] was 0.3 ± 0.01 SUV. It also gave an SUV at 5 min [14] of 0.07 SUV, a tissue uptake dose at 5 min [15] of 0.05 %ID and an SUV at 1 h [16] of 0.05 ± 0.01 SUV. For the same molecule, the tissue uptake dose at 1 h [17] was 0.05 ± 0.03 %ID, the SUV at 4 h [14] was 0.03 SUV and the tissue uptake dose at 4 h [15] was 0.05 ± 0.01 %ID. It also gave an SUV at 24 h [16] of 0.08 ± 0.01 SUV, a tissue uptake dose at 24 h [17] of 0.08 ± 0.03 %ID and an SUV at 48 h [14] of 0.07 SUV. It also gave a tissue uptake dose at 48 h [15] of 0.1 %ID, an SUV at 1 h [18] of 0.04 SUV and a tissue uptake dose at 1 h [19] of 0.06 ± 0.01 %ID. For the same molecule, the SUV at 4 h [18] was 0.03 SUV, the tissue uptake dose at 4 h [19] was 0.05 %ID and the SUV at 24 h [18] was 0.06 SUV. The tissue uptake dose at 24 h [19] was 0.1 %ID, the SUV at 48 h [18] was 0.07 SUV and the tissue uptake dose at 48 h [19] was 0.09 %ID. It also gave a tissue uptake dose at 5 min [20] of 63.4 ± 6.19 %ID, a tissue uptake dose at 1 h [21] of 28.1 ± 1.55 %ID and a tissue uptake dose at 4 h [20] of 20.1 ± 1.68 %ID. For the same molecule, the tissue uptake dose at 24 h [21] was 28.4 ± 3.49 %ID, the tissue uptake dose at 48 h [20] was 21.6 ± 1.04 %ID and the tissue uptake dose at 1 h [22] was 32.9 ± 2.62 %ID. The tissue uptake dose at 4 h [22] was 20.1 ± 1.28 %ID, the tissue uptake dose at 24 h [22] was 28.5 ± 1.49 %ID and the tissue uptake dose at 48 h [22] was 19.7 ± 2.74 %ID. It also gave an SUV at 5 min [23] of 3.04 ± 2.13 SUV, a tissue uptake dose at 5 min [24] of 1.32 ± 0.89 %ID and an SUV at 1 h [25] of 1.58 ± 0.58 SUV. For the same molecule, the tissue uptake dose at 1 h [26] was 0.8 ± 0.21 %ID, the SUV at 4 h [23] was 0.87 ± 0.04 SUV and the tissue uptake dose at 4 h [24] was 0.55 ± 0.03 %ID. The SUV at 24 h [25] was 0.54 ± 0.06 SUV and the tissue uptake dose at 24 h [26] was 0.3 ± 0.06 %ID.
